# B1: Mothers against decapentaplegic homolog 4 (Homo sapiens), Q13485 (parent)
# chain: MDNMSITNTPTSNDACLSIVHSLMCHRQGGESETFAKRAIESLVKKLKEKKDELDSLITAITTNGAHPSKCVTIQRTLDGRLQVAGRKGFPHVIYARLWRWPDLHKNELKHVKYCQYAFDLKCDSVCVNPYHYERVVSPGIDLSGLTLQSNAPSSMMVKDEYVHDFEGQPSLSTEGHSIQTIQHPPSNRASTETYSTPALLAPSESNATSTANFPNIPVASTSQPASILGGSHSEGLLQIASGPQPGQQQNGFTGQPATYHHNSTTTWTGSRTAPYTPNLPHHQNGHLQHHPPMPPHPGHYWPVHNELAFQPPISNHPAPEYWCSIAYFEMDVQVGETFKVPSSCPIVTVDGYVDPSGGDRFCLGQLSNVHRTEAIERARLHIGKGVQLECKGEGDVWVRCLSDHAVFVQSYYLDREAGRAPGDAVHKIYPSAYIKVFDLRQCHRQMQQQAATAQAAAAAQAAAVAGNIPGPGSVGGIAPAISLSAAAGIGVDDLRRLCILRMSFVKGWGPDYPRQSIKETPCWIEIHLHRALQLLDEVLHTMPIADPQPLD
# Variants of: B1
# Conditions: with fbw1a_human BTRC
row,effect of a mutation on the interaction,Variant
1,with no effect,P102L

# Variants of: B1
# Conditions: with skp2_human SKP2, Q13309
# Chain of skp2_human SKP2, Q13309 (Q13309 whole entry): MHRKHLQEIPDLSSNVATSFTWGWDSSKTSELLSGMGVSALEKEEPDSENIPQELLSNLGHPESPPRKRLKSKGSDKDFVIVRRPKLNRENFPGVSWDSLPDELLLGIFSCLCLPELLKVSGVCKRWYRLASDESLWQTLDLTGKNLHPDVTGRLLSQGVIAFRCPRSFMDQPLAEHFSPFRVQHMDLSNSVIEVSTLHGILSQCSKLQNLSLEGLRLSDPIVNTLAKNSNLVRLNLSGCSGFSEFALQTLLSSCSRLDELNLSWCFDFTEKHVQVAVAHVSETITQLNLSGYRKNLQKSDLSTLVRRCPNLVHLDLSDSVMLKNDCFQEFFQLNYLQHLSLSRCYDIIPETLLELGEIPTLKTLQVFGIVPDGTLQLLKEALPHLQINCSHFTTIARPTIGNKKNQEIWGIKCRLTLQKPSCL
row,effect of a mutation on the interaction,Variant
1,disrupting interaction strength,P102L

# Source: IntAct's records for PubMed 16865698
